One molecule from publication PMC5900712 can be followed below.

This data set concerns the target T1, YanA86D (monomer) (UniProt Q01842 1-499, A86D).
T1 sequence: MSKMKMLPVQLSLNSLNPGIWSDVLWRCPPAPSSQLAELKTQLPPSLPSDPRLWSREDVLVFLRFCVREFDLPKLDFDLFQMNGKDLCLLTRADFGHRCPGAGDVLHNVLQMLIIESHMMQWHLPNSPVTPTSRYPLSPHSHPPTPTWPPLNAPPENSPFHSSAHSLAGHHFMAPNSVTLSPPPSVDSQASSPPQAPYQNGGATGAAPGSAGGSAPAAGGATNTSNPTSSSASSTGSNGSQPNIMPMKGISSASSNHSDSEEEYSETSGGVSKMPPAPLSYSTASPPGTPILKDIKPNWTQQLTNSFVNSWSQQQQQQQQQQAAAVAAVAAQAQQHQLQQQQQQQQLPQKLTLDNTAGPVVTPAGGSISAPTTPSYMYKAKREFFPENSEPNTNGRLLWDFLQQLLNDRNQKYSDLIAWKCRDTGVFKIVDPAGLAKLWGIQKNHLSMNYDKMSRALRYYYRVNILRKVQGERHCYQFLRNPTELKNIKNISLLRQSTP
The experiment in a line: competition.

B1: MHE ETS site 6 (dsDNA)
DNA 1: AAATGCTTAAACAGGGAAATCGTCTTGG
DNA 2: CCAAGACGATTTCCCTGTTTAAGCATTT
B1: the binding result was “no binding”.
